Where two headings read alike, the source gives them in different places.
B1: transportin (human transportin/karyopherin β2, recombinant) (natural protein)
chain: MEYEWKPDEQGLQQILQLLKESQSPDTTIQRTVQQKLEQLNQYPDFNNYLIFVLTKLKSEDEPTRSLSGLILKNNVKAHFQNFPNGVTDFIKSECLNNIGDSSPLIRATVGILITTIASKGELQNWPDLLPKLCSLLDSEDYNTCEGAFGALQKICEDSAEILDSDVLDRPLNIMIPKFLQFFKHSSPKIRSHAVACVNQFIISRTQALMLHIDSFIENLFALAGDEEPEVRKNVCRALVMLLEVRMDRLLPHMHNIVEYMLQRTQDQDENVALEACEFWLTLAEQPICKDVLVRHLPKLIPVLVNGMKYSDIDIILLKGDVEEDETIPDSEQDIRPRFHRSRTVAQQHDEDGIEEEDDDDDEIDDDDTISDWNLRKCSAAALDVLANVYRDELLPHILPLLKELLFHHEWVVKESGILVLGAIAEGCMQGMIPYLPELIPHLIQCLSDKKALVRSITCWTLSRYAHWVVSQPPDTYLKPLMTELLKRILDSNKRVQEAACSAFATLEEEACTELVPYLAYILDTLVFAFSKYQHKNLLILYDAIGTLADSVGHHLNKPEYIQMLMPPLIQKWNMLKDEDKDLFPLLECLSSVATALQSGFLPYCEPVYQRCVNLVQKTLAQAMLNNAQPDQYEAPDKDFMIVALDLLSGLAEGLGGNIEQLVARSNILTLMYQCMQDKMPEVRQSSFALLGDLTKACFQHVKPCIADFMPILGTNLNPEFISVCNNATWAIGEISIQMGIEMQPYIPMVLHQLVEIINRPNTPKTLLENTAITIGRLGYVCPQEVAPMLQQFIRPWCTSLRNIRDNEEKDSAFRGICTMISVNPSGVIQDFIFFCDAVASWINPKDDLRDMFCKILHGFKNQVGDENWRRFSDQFPLPLKERLAAFYGV
B2: hGFP–CAS (human CAS fused to hGFP) (natural protein)
chain: MELSDANLQTLTEYLKKTLDPDPAIRRPAEKFLESVEGNQNYPLLLLTLLEKSQDNVIKVCASVTFKNYIKRNWRIVEDEPNKICEADRVAIKANIVHLMLSSPEQIQKQLSDAISIIGREDFPQKWPDLLTEMVNRFQSGDFHVINGVLRTAHSLFKRYRHEFKSNELWTEIKLVLDAFALPLTNLFKATIELCSTHANDASALRILFSSLILISKLFYSLNFQDLPEFFEDNMETWMNNFHTLLTLDNKLLQTDDEEEAGLLELLKSQICDNAALYAQKYDEEFQRYLPRFVTAIWNLLVTTGQEVKYDLLVSNAIQFLASVCERPHYKNLFEDQNTLTSICEKVIVPNMEFRAADEEAFEDNSEEYIRRDLEGSDIDTRRRAACDLVRGLCKFFEGPVTGIFSGYVNSMLQEYAKNPSVNWKHKDAAIYLVTSLASKAQTQKHGITQANELVNLTEFFVNHILPDLKSANVNEFPVLKADGIKYIMIFRNQVPKEHLLVSIPLLINHLQAESIVVHTYAAHALERLFTMRGPNNATLFTAAEIAPFVEILLTNLFKALTLPGSSENEYIMKAIMRSFSLLQEAIIPYIPTLITQLTQKLLAVSKNPSKPHFNHYMFEAICLSIRITCKANPAAVVNFEEALFLVFTEILQNDVQEFIPYVFQVMSLLLETHKNDIPSSYMALFPHLLQPVLWERTGNIPALVRLLQAFLERGSNTIASAAADKIPGLLGVFQKLIASKANDHQGFYLLNSIIEHMPPESVDQYRKQIFILLFQRLQNSKTTKFIKSFLVFINLYCIKYGALALQEIFDGIQPKMFGMVLEKIIIPEIQKVSGNVEKKICAVGITKLLTECPPMMDTEYTKLWTPLLQSLIGLFELPEDDTIPDEEHFIDIEDTPGYQTAFSQLAFAGKKEHDPVGQMVNNPKIHLAQSLHKLSTACPGRVPSMVSTSLNAEALQYLQGYLQAASVTLL

Experiments:
[1] = target: T1, Ran (recombinant human wild-type Ran, charged with GTP or GDP) (human, UniProt P62826 1-216); experiment: co-IP
[2] = target: T1, Ran (recombinant human wild-type Ran, …); experiment: co-IP; remark: listed apart in the source

| Binder | binding result [1] | binding result [2] |
| --- | --- | --- |
| B1 | binds |  |
| B2 |  | binds |

From article PMC2132938 (The Journal of Cell Biology, 1999)
